Measurements from US8822645B2, “Prostaglandin E2 dual variable domain immunoglobulins and uses thereof” (AbbVie Inc., priority 2008, dated 2014).

Test system: C57BL6/N mice, LPS/D-Galactosamine-induced lethality
Assay: LPS-D-galactosamine-induced lethality
Assay type: in vivo, mouse
Settings: 12 mg/kg IP
Procedure: Saline alone was used as a negative control. Another group received […] 8C11-1E10, an anti-mouse TNF monoclonal antibody, as a positive control.
At the time of challenge, the mice were injected i.p. with 500 μL dose volume of saline containing 100 ng/mouse LPS (Sigma L4130, lot 095K4056, St. Louis, Mo.) and 20 mg/mouse D-Galactosamine (Sigma G-0500, lot 048K1547, St. Louis, Mo.). The mice were then monitored for lethality twice a day for 48 hours. At 48 hours the remaining surviving mice were sacrificed and bled for plasma antibody levels.

B1: 8C11: murine anti-mouse TNFα monoclonal antibody clone (antibody, V domains shown)
VH: EFQLQQSGPELVKPGASVRISCKASGYSFTDYNMNWVKQSNGKSLEWVGVINPNYGSSTYNQKFKGKATLTVDQSSSTAYMQLNSLTSEDSAVYYCARKWGQLGRGFFDVWGTGTTVTVSS
VL: QIVLSQSPAILSASPGEKVTMTCRASSSVSYMHWFQQKPGSSPKPWIYATSNLASGVPARFSGSGSGTSYSLTISRVEAEDAATYYCQQWSSSPLTFGAGTKLELKR
B1 was tested, and the “% Survival” value was 100% and the “Mean Plasma Ab Concentration” value was 65 ± 4.0 µg/mL.
